Consider 1 molecule from patent publication US20180194850A1 (GENERAL HOSPITAL, published 2018).

For assay [1], the target named is T1, S03933.
T1 sequence (peptide): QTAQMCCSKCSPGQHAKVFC
Nature of the assay: linear peptide ELISA (absorbance); Affinity +.

The target in assay [2] is T2, EGCRL2….
T2 sequence (peptide, 2 = Cys(Acm)): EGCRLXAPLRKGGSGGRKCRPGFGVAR
Briefly: CLIPS peptide-array ELISA [Continued]. A general note: An ELISA detects its analyte on a solid surface through an enzyme-linked reagent.

Assay [3] deals with T3, peptide fragment defined by residues 130-149 of SEQ ID NO: 7 within human TNFR2 (KQEGCRLCAPLRKCRPGFGV) (human).
T3 construct: also called linear peptide containing the KCRPG motif
T3 peptide: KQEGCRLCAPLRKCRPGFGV
Nature of the assay: comparison of affinity for linear peptides; assay not named in the sentence (linear peptide ELISA, FIG. 13B). The protocol: ELISA was also used to determine linear epitopes present on the extracellular surface of TNFR2.
Linear peptides corresponding to various regions within the TNFR2 primary sequence were purchased from GenScript (Piscataway, N.J.), diluted in coating buffer and placed on Immulon 4HBX Flat Bottom Microtiter Plates (Thermo Scientific) at a concentration of 1 μg/well. Primary TNFR2 antagonistic antibodies (0.1 μg/well) were incubated with substrates. Secondary antibodies against rodent IgG were used to detect the primary antibodies. Absorbance was measured using the SPECTRAMAX® 190 Absorbance Plate Reader and analyzed with SoftMax Pro 6.3 (Molecular Devices).

B1: antagonistic TNFR2 antibody TNFRAB1 (antibody, V domains shown)
VH: EVQLQESGGGLVKPGGSLKLSCAASGFTFSSYVMSWVRQTPEKRLEWVATISSGGSYTYYPDSVKGRFTISRDNAKNTLYLQMSSLRSEDTAMYYCARQRVDGYSSYWYFDVWGAGTAVTVSS
VL: DIVLTQSPAIMSASPGEKVTITCSASSSVYYMYWFQQKPGTSPKLWIYSTSNLASGVPVRFSGSGSGTSYSLTISRMEAEDAATYYCQQRRNYPYTFGGGTKLEIKR
notes: Murine monoclonal IgG; For SPR the antibody was biotinylated and captured on streptavidin; also called TNFR2 antagonist 1
For the molecule B1, the Reading in assay [1] was 0.1. In assay [2], this molecule gave a Raw luminescence data of 358. Moreover, in assay [3], the “fold greater affinity than for the peptide of residues 48-67 (…, SEQ ID NO: 18)” value stood at 40 fold.
